These results are taken from article PMC4339652, “Antibacterial toxin colicin N and phage protein G3p compete with TolB for a binding site on TolA” (Microbiology, 2015).

The labels stand for the following.
B1: G3p-N1, N-terminal (N1) domain of gene-3-protein of filamentous bacteriophage M13 (domain or fragment, UniProt P69168 19-104, looked up)
chain: AETVESCLAKPHTENSFTNVWKDDKTLDRYANYEGCLWNATGVVVCTGDETQCYGTWVPIGLAIPENEGGGSEGGGSEGGGSEGGG
notes: Gene-3-protein (G3p, minor coat protein), filamentous bacteriophage M13, N1 domain; also called G3p-sN1
B2: Colicin N translocation domain, ColN-T (ColN 1-90) (domain or fragment)
chain: MGSNGADNAHNNAFGGGKNPGIGNTSGAGSNGSASSNRGNSNGWSWSNKPHKNDGFHSDGSYHITFHGDNNSKPKPGGNSGNRGNNGDGA
notes: Colicin N, disordered N-terminal translocation (T) domain, residues 1-90; also called ColN-T_(1–90); T_(1–90)
B3: TolAIII (TolA domain III, residues 296-421), wild type (domain or fragment, E. coli, UniProt P19934 296-421, looked up)
chain: DIFGELSSGKNAPKTGGGAKGNNASPAGSGNTKNNGASGADINNYAGQIKSAIESKFYDASSYAGKTCTLRIKLAPDGMLLDIKPEGGDPALCQAALAAAKLAKIPKPPSQAVYEVFKNAPLDFKP
notes: TolA, E. coli, 421-residue protein; C-terminal domain III, residues 296-421, soluble truncate lacking TolAI-II; also called TolA_(III296–421); WT TolAIII

What all share (settings): both partners purified
Experiment [1] concerns the target B3. Description: SPR; TolAIII WT, D418P or K420P amine-coupled to a CM5 chip (~550 RU; 155 RU TolAIII for ColN-T kinetics); concentration series of analyte (ColN-T, G3p-N1 0.2-50 µM; G3p-N1 V44P up to 250 µM); Biacore X-100, 25 °C, HEPES-EP (10 mM HEPES pH 7.4, 150 mM NaCl, 3.4 mM EDTA, 0.05 % P20); blank surface subtracted; kinetic fits and steady-state affinity. (Surface plasmon resonance follows binding to a sensor surface in real time, without labels.)

In the next experiment the target is T1, TolB, wild type (UniProt P0A855 22-430).
T1 construct: TolB, 47 kDa two-domain soluble periplasmic protein; also called WT TolB
Description: SPR; TolAIII (645 RU) amine-coupled to CM5; WT TolB or TolB mutants passed over (5 µM in Fig. 4e); 1:1 Langmuir fits and steady-state affinity; HEPES-EP, 25 °C.

The next experiment has as its target T2, TolB DGSY-AGAA (UniProt P0A855 22-430, DGSY-AGAA).
T2 construct: TolB with DGSY (109-112) changed to AGAA
Described as above.

Values joined by “and” are separate entries in the source; they are usually repeats but may differ in a detail not shown here. Equal values may be shown once.

What is called Kd is the free concentration of one partner at which half of the binding sites on the other are occupied at equilibrium, for simple one-to-one binding. As a reminder, the koff is a measure of how fast the partners let go of each other. A lower koff goes with a long-lived complex. As usually defined, the kon is the second-order rate constant of association. The low end stands for slower complex formation, the high end for faster complex formation. For B1, in experiment [1], the Kd is 15 µM and 11.9 µM; the koff amounted to 0.31 ± 0.002 s⁻¹; the kon was 20600 M⁻¹ s⁻¹.

In turn, B2 gave a Kd in experiment [1] of 1.8 ± 0.2 µM.

Turning to B3, in the experiment with TolB, wild type, the Kd is 37 µM and 43.2 µM; the koff came out at 0.3 ± 0.004 s⁻¹; the kon was determined as 8270 M⁻¹ s⁻¹. Also, in the experiment with TolB DGSY-AGAA, the Kd is 39 µM and 48.3 µM; the koff is 0.1 ± 0.002 s⁻¹; the kon was 2710 M⁻¹ s⁻¹.
